# In patent US20060014927A1 (US Dept. of Health and Human Services, published 2006):
# Bridges are numbered along the chain shown (N, C = ends). [ ]: non-standard residue; d: D form. Gla = N[C@@H](CC(C(=O)O)C(=O)O)C(=O)O; Aad = N[C@@H](CCCC(=O)O)C(=O)O
# B1: cyclo(CH2CO-Adi1-Leu2-Tyr3-Glu4-Asn5-Val6-Gly7-Met8-Tyr9-Cys)-amide (peptide)
# peptide: {CH2CO}-[Aad]LYENVGMYC-NH2
# modifications: thioether N-10
# notes: Synthetic thioether-cyclised, non-phosphorylated peptide
# B2: cyclo(CH2CO-Adi1-Leu2-Tyr3-Adi4-Asn5-Val6-Gly7-Met8-Tyr9-Cys)-amide (peptide)
# peptide: {CH2CO}-[Aad]LY[Aad]NVGMYC-NH2
# modifications: thioether N-10
# notes: as for B1
# B3: cyclo(CH2CO-Gla1-Leu2-Tyr3-Glu4-Asn5-Val6-Gly7-Met8-Tyr9-Cys)-NH-Ala-Ala-Val-Ala-Leu-Leu-Pro-Ala-Val-Leu-Leu-Ala-Leu-Leu-Ala-Pro (peptide)
# peptide: {CH2CO}-[Gla]LYENVGMYCAAVALLPAVLLALLAP-NH2
# modifications: thioether N-10; not fully specified; printed as cyclo(CH2CO-Gla1-Leu2-Tyr3-Glu4-Asn5-Val6-Gly7-Met8-Tyr9-Cys)-NH-Ala-Ala-Val-Ala-Leu-Leu-Pro-Ala-Val-Leu-Leu-Ala-Leu-Leu-Ala-Pro
# B4: cyclo(CH2CO-Gla1-Leu2-Tyr3-Glu4-Asn5-Val6-Gly7-Met8-Tyr9-Cys)-amide (peptide)
# peptide: {CH2CO}-[Gla]LYENVGMYC-NH2
# modifications: thioether N-10
# SMILES: CSCC[C@@H]1NC(=O)CNC(=O)[C@H](C(C)C)NC(=O)[C@H](CC(N)=O)NC(=O)[C@H](CCC(=O)O)NC(=O)[C@H](Cc2ccc(O)cc2)NC(=O)[C@H](CC(C)C)NC(=O)[C@H](CC(C(=O)O)C(=O)O)NC(=O)CSC[C@@H](C(N)=O)NC(=O)[C@H](Cc2ccc(O)cc2)NC1=O
# notes: Synthetic thioether-cyclised, non-phosphorylated peptide (L = S)
# Experiments:
# [1] = molecular target: T1, recombinant GST-Grb2 SH2 protein (UniProt P62993 60-152); assay: comparison with the Glu1 analogue as reference; assay not named in the sentence (Biacore competition of Example 7 understood)
# T1 construct: not shown: glutathione S-transferase (GST) fusion partner
# T1 sequence (P62993 60-152): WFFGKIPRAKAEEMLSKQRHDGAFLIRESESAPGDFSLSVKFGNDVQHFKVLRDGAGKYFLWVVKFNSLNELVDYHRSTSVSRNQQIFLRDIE
# Method: (§1) The competitive binding affinity of the present inventive compounds was assessed using Biacore Surface Plasmon Resonance (SPR) methods utilizing a Biacore 2000 instrument. […] Specifically, competitive binding assays were carried out at 5 μl/min flow rate, with GST-Grb2-SH2 (150-250 nM) and a cyclic peptide inhibitor (10 nM-2 mM) in phosphate-buffered saline (PBS), pH 7.4, containing 0.01% P-20 surfactant (Biacore, Inc., Piscataway, N.J.) for a total of 10 min. The change in response units (RU) at equilibrium was measured from the […] and the percent of control (no added peptide) was calculated. […] The results represent the mean value of at least two independent experiments.
# [2] = molecular target: T1, recombinant GST-Grb2 SH2 protein; assay: Biacore SPR competition; inhibitor mixed with GST-Grb2 SH2 (150-250 nM), binding to immobilised biotin-SHC(pTyr-317)-9-mer as competitor
# Method: as §1
# Grb2 adapter protein = molecular target: T2, Grb2 adapter protein (UniProt P62993 1-217); assay: MDA-MB-453 lysates incubated with inhibitor; anti-Grb2 co-immunoprecipitation, anti-pTyr Western blot; p185erbB-2 as competitor
# T2 construct: Endogenous protein in cell lysates or whole cells
# T2 sequence (P62993 whole entry): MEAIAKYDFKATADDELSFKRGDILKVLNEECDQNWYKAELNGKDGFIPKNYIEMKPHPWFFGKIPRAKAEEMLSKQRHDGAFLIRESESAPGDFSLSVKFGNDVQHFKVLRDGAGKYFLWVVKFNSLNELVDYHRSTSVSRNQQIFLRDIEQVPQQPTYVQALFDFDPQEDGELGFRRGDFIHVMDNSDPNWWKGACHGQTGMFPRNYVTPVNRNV
# Method: Cell lysates were prepared from the serum-treated erbB-2-overexpressing breast cancer cell line MDA-MB-453 using 1% Triton X-100 in PBS containing 0.2 mM NaVO₄. Lysates were incubated with the present inventive cyclic peptide inhibitors specified in Example 1 and Example 12, at concentrations of 0.1, 0.4, 2, 10 and 50 μM. No inhibitor was used as a control. […] Grb2 and associated Grb2-binding proteins were immunoprecipitated from each lysate (500 μg) with anti-Grb2 antibodies and collected using protein A Sepharose using methods previously described. Immunoprecipitated proteins were separated by SDS-PAGE on 8-16% gradient gels (Novex). pTyr-containing proteins were detected by Western blotting using anti-phosphotyrosine antibodies (Upstate Biotechnology Inc.). Previous experiments have shown that a major tyrosine phosphorylated protein in MDA-MB-453 cells is p185^erbB-2, which is overexpressed as a consequence of gene amplification. […] A dose-dependent inhibition of the p185^erbB-2 receptor association with the Grb2 adapter protein was observed.
Binder,fold improvement of binding efficacy over Glu^1 [1] [fold],IC50 [2] [nM],IC50 (Grb2 adapter protein) [nM]
B1,6,3450,
B2,,3050,
B3,,,2000
B4,31,640,2000
